T1: TGFβ2 (transforming growth factor beta 2) (Homo sapiens, UniProt P61812 SEQ:1-112)
T1 sequence: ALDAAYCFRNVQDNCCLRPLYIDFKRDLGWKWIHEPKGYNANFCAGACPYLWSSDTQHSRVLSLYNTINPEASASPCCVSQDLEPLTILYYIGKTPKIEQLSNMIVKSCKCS

B1: 8.40 (ssRNA)
RNA: GGGAGGACGAUGCGGCCCAUUAGUCCUCAUUAGUCCCCUGUGCCCCAGACGACUCGCCCGA
modifications: 2'-F C and U; 2'-OH A and G
B2: 8.12 (ssRNA)
RNA: GGGAGGACGAUGCGGUCCAUCAACAAUCUUAUCAUUAUGUUUUUCCUUCCCGCCCCAGACGACUCGCCCGA
modifications: 2'-F C and U; 2'-OH A and G
B3: 8.48 (ssRNA)
RNA: GGGAGGACGAUGCGGAAGUAACGUUGAAGUAAAAUUCGUUCUCUCGGUAUUGGCCAGACGACUCGCCCGA
modifications: 2'-F C and U; 2'-OH A and G
B4: 8.35 (ssRNA)
RNA: GGGAGGACGAUGCGGAUCCUAUCCUCUGAAUAUCAUUAAAUCAUCUUCUCCGCCCCAGACGACUCGCCCGA
modifications: 2'-F C and U; 2'-OH A and G
B5: 8.3 (ssRNA)
RNA: GGGAGGACGAUGCGGAAGUAACGUUGAAGUAAAAUUCGUUCUCUCGGCAUUUGGCCAGACGACUCGCCCGA
modifications: 2'-F C and U; 2'-OH A and G
B6: 8.9 (ssRNA)
RNA: B5 RNA with C48U
modifications: 2'-F C and U; 2'-OH A and G
B7: 8.5 (ssRNA)
RNA: GGGAGGACGAUGCGGUCCUAACCAUCACAAUCUCAAUUCUUAUAUUUUCCCGCCCCAGACGACUCGCCCGA
modifications: 2'-F C and U; 2'-OH A and G
B8: 8.28 (ssRNA)
RNA: GGGAGGACGAUGCGGAUGAGACCUAAUCAUCGAUCCGCUAUCUAAAACCUCACCCCAGACGACUCGCCCGA
modifications: 2'-F C and U; 2'-OH A and G
B9: 8.23 (ssRNA)
RNA: GGGAGGACGAUGCGGAGACAUCUUUGUCUCGAUUAGUCAUGUUCCUUACCUGCCCCAGACGACUCGCCCGA
modifications: 2'-F C and U; 2'-OH A and G
B10: 8.8 (ssRNA)
RNA: GGGAGGACGAUGCGGAUAGAUCGGUCCGAUAAGUCUUUCAUCUUUACCUGGCCCCCAGACGACUCGCCCGA
modifications: 2'-F C and U; 2'-OH A and G
B11: 8.20 (ssRNA)
RNA: GGGAGGACGAUGCGGUCUCAACGAAGAACAUCGUUGGAUACUGUUUGUCCCGCCCCAGACGACUCGCCCGA
modifications: 2'-F C and U; 2'-OH A and G
B12: 8.6 (ssRNA)
RNA: GGGAGGACGAUGCGGAAACCAAAAGACCACAUCUCCAUACUCACGCUCUGCCCCAGACGACUCGCCCGA
modifications: 2'-F C and U; 2'-OH A and G
B13: 8.18 (ssRNA)
RNA: GGGAGGACGAUGCGGUCUACCCUUUAGCAGUAUUUGUUUCCAUCGUUGUUUGCCCCAGACGACUCGCCCGG
modifications: 2'-F C and U; 2'-OH A and G
B14: ChD70-m3 (ssRNA)
RNA: GGGUGCCUUUUGCCUAGGUUGUGAUUUGUAACCUUCUGCCCA
modifications: 2'-OMe at 21, 23-24, 28
B15: ChD70-m6 (ssRNA)
RNA: B14 RNA
modifications: 2'-OMe at 2, 21, 23-24, 28
B16: ChD70-m7 (ssRNA)
RNA: B14 RNA
modifications: 2'-OMe at 3, 21, 23-24, 28
B17: ChD70-m10 (ssRNA)
RNA: B14 RNA
modifications: 2'-OMe at 16, 21, 23-24, 28
B18: ChD70-m5 (ssRNA)
RNA: B14 RNA
modifications: 2'-OMe at 1, 21, 23-24, 28

Substitutions are numbered along the chain they refer to.

The target in the first data set is T1, TGFβ2 (transforming growth factor beta …). Put plainly: filter. To be noted: chain copies: 2 (homodimer, stated).
For B1, the binding result is “no binding”.
Same read-out and setting: then B2, with “no binding”; and B3, with “binds”; and B4, with “no binding”.
Same read-out and setting: then B5, with “binds”; and B6, with “binds”; and B7, with “no binding”.
The same measure, in the same setting: as for B8, the entry is “no binding”.
Turning to B9, the binding result is reported as “no binding”.
On the same count and under the same terms, then B10, with “no binding”.
As to B11, the binding result was “no binding”.
On to B12, for which the binding result was “no binding”.
As to B13, the binding result is recorded as “no binding”.

The target in a further data set is TGFβ1 (transforming growth factor beta 1) (Homo sapiens, UniProt P01137 SEQ:1-112). Put plainly: CD70 parent +++. The following applies: chain copies: 2 (homodimer, inferred).
TGFβ1 (transforming growth factor beta 1), sequence (P01137 279-390): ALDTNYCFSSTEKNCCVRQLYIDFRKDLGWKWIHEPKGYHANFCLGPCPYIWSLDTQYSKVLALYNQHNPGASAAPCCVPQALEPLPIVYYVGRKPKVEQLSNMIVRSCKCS
Turning to B14, the binding result is recorded as “binds”.
For B15, the binding result is reported as “binds”.
Still for that read-out and setting: as for B16, the entry is “binds”; as for B17, “binds”; as for B18, “binds”.
